Data reported in US20170087188A1, “WNT INDUCED MOTILITY AND ENHANCED ENGRAFTMENT OF CELLS” (OTTAWA HOSPITAL RESEARCH INSTITUTE, priority 2014, published 2017).

How the values were obtained:
[1] = molecular target: Fzd7 (endogenous, mouse myogenic cells) (mouse) (UniProt Q61090); test: cell-based or functional assay
Fzd7-YFP (CMV-Fzd7-EYFP) = test: cell-based or functional assay

- abundance of triangular polarized C2C12 cells [1]: 111 % increase
- directional persistence of satellite cells on single myofibers (time lapse imaging) [1]: 36 % higher
- mean velocity of satellite cells on single myofibers (time lapse imaging) [1]: 31 % increase
- migration of C2C12 cells in scratch assay [1]: 443 % increase
- migration of satellite cell derived mouse primary myoblasts in scratch assay [1]: 136 % increase
- cell polarization of Fzd7-YFP expressing C2C12 cells (Fzd7-YFP (CMV-Fzd7-EYFP)): 167 % increase
Substance: Wnt7a (R&D Systems) (ligand)
